Experimental data: the nanobody polyreactivity screen of Harvey et al. (2022)

Assay: yeast display, Sf9 membrane polyspecificity reagent, FACS + sequencing; frameworks hold sequencing errors
Method in brief: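 Polyreactivity labels are assigned by the sorting gate from which each nanobody was recovered. The gates were low and high (top ~1%), set on anti-HA fluorescence for expression and streptavidin fluorescence for reagent binding. Before sorting, galactose-induced (36–48 hours) yeast display cells were stained for 1 hour at 4 °C with 10% biotinylated, detergent-solubilized Sf9 membrane reagent.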

Sequence	polyreactivity (PSR sort gate)
QVHLVESGGGLVQAGGSLRLSCAASGRISHYNAMGWNRQAPGKERELVAAISSRGGSTYYADSVKGRFTISRDNAKNTVYLQMNSLKPEDTAVYFCAVRYWHWGKKITYDYWGQGTQVTVSS	high polyreactivity
QVQLVESGGGLVQAGGSLRLSCAASGRIFTSYAMGWSRQAPGKERELVATISSADGTKYADSVKGRFTISRDNAKNTVYLQMNSLKPEDTAVYYCNAYVWSWNDYWGQGTQVTVSS	low polyreactivity
QVQLVQSGRGLVHAGCSLRLSCAASGRIYAGNAMGLYRQPPGKERELFATITSGGSTYYADSVKGRFTISRDNAKNTVYLQMNSLKPEDTAVYYCNAVNYWVKSRFSLTWEFAVVYWGQGTQVTVSS	low polyreactivity
QVQLVESGGGLVQAGGSLRLSCAASGIIFKYYARGWYRQAPGKERELVAGITSGGSTYYADSVKGRFTISRDNAKNTVYLQMNSLKPEDTAVYYCATRVRDGSQPQYRRRHSYDYWGQGTQVTVSS	high polyreactivity
QVQLVESGGGLVQAGGSLRLSCAASGSTFYYYAMGWYRQAPGKERELVAAISISDNSTYYADSVKGRFTISRDNAKNTVYLQMNSLKPEDTAVYYCAAYGWYAHDDSTYDYWGQGTQVTVSS	low polyreactivity
QVQLVESGGGLVQPGGSLRLSCSASGSIFRVYGMGWYRQAPGKERELVAAITWSGGSTYYADSVKGRFSISRDKAKNTVYLQQNSLKPEDTAVYYCAARARPRYYRPPYDYWGQGTQVTVSS	high polyreactivity
QVKLQGSGGGLAQAGDSLRLSCAASGTIFSEYNNGLVSPGAGQRTRTCCRYWCWGNTYYADSAKGRFTTSRDNAKNSVYLQKNSLKPEDTAVYYCAFNLPYPSRHIYRGQGTQVTVSS	high polyreactivity
QVQLVESGGGLVQAGGSLRLSCAASGSIFYRNAMGWYRQAPGKERELVAAISSDGSTNYADSVKGRFTISRDNAKNTVYLQMNSLKPEDTAVYDCAGLQKRRSYWRPFYWGQGTQVTVSS	low polyreactivity
QVQLVESGGGLVQAGGSLRLSCAASGSIFYYYVMGWYRQAPGKERELVAAISSGGGTNYADSVKGRFTISRDNAKNTVYLQMNSLKPEDTAVYYCANASAYGLANDYDYWGQGTQVTVSS	low polyreactivity
QVHLVESAAGFVQAGGSLRLSGAASGFILWYYTMGWYRQAPGKERELVAVIDWSGDSTYADSVKGRFTISLDNAKNSVYLQMNSLIPVDTAVYYWNADYFVVWARLEFNYWGQGTQVTVSS	low polyreactivity
QVQLVESGGGLVQAGGSLRLSCAASGITFGFNAMGWYRQAPGKERELVAAITWSVGRTYYADSVKGRFTISRDTAKNTVYLQMNSLKPEDTAVYYCAKDFEAGDDYFAYDYWGQGTQVTVSS	low polyreactivity
QVQLVESGGGLVQAGGSLRLSCAASGRIFSGYAMGWYRQAPGKERELVAAITSGASTNYADSVKGRFTISRDNAKNTVYLQMNSLKPEDTAVYYCAATYHTWRGQYLWYDYWGQGTQVTVSW	low polyreactivity
QVQLVESGGGLVQAGGSLRLSCAASGRIYIGNAMGWYRQAPGKERELVAAISKRGGSTYYADSVKGRFTISRDNAKNTVYLQMKSLKAEDTAVYYCIKESLYREFDYLGQGTQVTVSS	low polyreactivity
QVQLVESGGGLVQAGGSLRLSCAASGRTFRRYAMGWYRQAPGKERELVATIRSGDNTNYADSVKGRFTISRDNAKNTVYLQMNSLKPEDTAVYYCNRSPKSGQVTYLYSVNAHYDYWGQGTQVTVSS	low polyreactivity
QVQLVESGGGLVQAGGSLRLSCAASGRTFLYNAMGWYRQAPGKERELVAAIRRGSSTYYADSVKGRFTISRDNAMNTVYLQMNSLKPEDTAVYYCAARGRYRIGPGRYGKRYDYWGQGTQVTVSS	high polyreactivity
QVQLVESGGGLVQAGGSLRLSCAASGSIFGVYAMGWYRQAPGKERELVAAISQSGGRTYYADSVKGRFTISRDNAKNTVYLQMNSLKPEDTAVYYCAAVVFNVYRRYWGQGTQVTVSS	high polyreactivity
QVQLVESGGCLVQAGGSLRLSCAASGSIFLFNAMGWYRQAPGKDRELVATISWSGVVLRTYADSVKGRFTISRDNAKNTVYLQMNSLKPEDTAVYNCAARDLAFFTEYGYWGQGTQVSVSS	high polyreactivity
QVQLVESGGGLVQAGGSLRLSCAASGSTFGFNAMGWYRQAPGKERELVAAIRGGDSTNYADSVKGRFTISRDNAKNTVYLQMNSLKPEDTAVYYCAAVLRYVVRPYSYWSGGYDYWGQGTQVTVSS	high polyreactivity
QVQLVESGGGLVQAGGSLRLSCAASGSTFGNYAMGWDRQAPGKERELVAAITSSGRTYYADSVKGRFTISRDNAKNTVYFQMNSLKPEDTAVYYCAAKSSRGGSVGFDYWGQGTQVTVSS	high polyreactivity
QVQLVESGGGLVQAGGSLRLSCAASGRSFPTYAMGWYRQAPGKERELVATISWSGGRTYYADSVKGRFTISRDNAKNTVYLLMNSLKPEDTAVYYCNAYISYRWYRWEYEYWGQGTQVTVSS	low polyreactivity
QVQLVESGGGLVQAGGSLRLSCAASGSISATYAKGWYRQAPGKERELVAAISRNGGSTYYADSVKGRFTISRDNAKNTVYLQMNSLKPEDTAVYYCATSSSKSMYWGQGTQVTVSS	high polyreactivity
QVQLVESGGGLVKAGGSLRLSCAASGSTFRPYAMGWYRPAPGKERELVAAITSRGGSTYYADSVKGRFTISRDNAKNTVSLQMNSLKPEDTAVYYCAASYEVVASSYRYYYWGQGTQVTVSS	high polyreactivity

Sequence	polyreactivity (PSR sort gate)
QVQLVESGGGLVQAGGSLRLSCAASGSTFVIYGMGWYRQAPGKERELVADITWIGGSTYYADSVKGRFTISRDNAKNTVYLQMNSLKPEDTAVYYCAADAAYLYLYNWYDTEDDYWGQGTQVTVSS	low polyreactivity
QVQLVESGGGLVQAGGSLRLSCAASGYTFVRYAMGWYRQAPGKERELVAAISRSGGSTYYADSVKGRFTISRDNAKNTVYLQMNSLKPEDTAVYYCNAYPYSYYDYDYWGQGTQVTVSS	high polyreactivity
QLQLVESLGGLFQAGGILRLSCAASGRTLRGYGNGWYRQAPAKEREFVAAISTRGGRTYYADSVKGRFTISRDNAKNTVYLQMKILKPEDTAVYYCAAAYEPGDYDSWGQGTQVTVSS	low polyreactivity
QVQLVESGGGLVQAGGSLRLSCAASGRIFVPNAMGWYRQAPGKERELVAAITSSGSSTYYADSVKGRFTISRDNAKNTVYLQMNSLKPEDTAVYYCNTLWGGFSWFRVDSWGQGTQVTVSS	high polyreactivity
QVQLVESGGGLVQAGGSLRLSCAASGRTFYGYAMGWYRQAPGKERELVAAISFSGGRTYYADSVKGRFTISRDNAKNTVYLQMNSLKPEDTAVYYCAAVPRGWFSYPSGYDYWGQGTQVTVSS	high polyreactivity
QVQLVESGGGLVQAGGSLRLSCAPSGRTYTVYTMGWYRQAPGKERELVAVISTGGRTYYADSVKGRFTISRDNAKNTVYLQMNSLKPEDTAVYYCAAKFTREYYWGQGTEVTVSS	high polyreactivity
QVQLVESGGGLVQAGGSLRLSCAASGSTLAIYAMGWYRQAPGKEREWVAAISRSGGTTYYADSVKGRFTISRDNAKNTVYLQMNSLKPEDTAVYYCYPYFWYPDGYTYDYWGQGTQVTVSS	high polyreactivity
QVQLVESGGGLVQAGGSLRISCAASGFIFVFYDRGWYRQAPGKEREFVAGITRNDGSTYYADSVKGRFKISRDNAKNTVYLQMNSLKPEDTAVYYCAAADSTWFDWGNYWYYYWGQGTQVTVSS	low polyreactivity
QVQLVESGGGLVQAGVSLRLSCAASGRTFVWYVKGWYRQAPGKERELVAAINRSGGRTYYADSVKGRFTISRDNAKNTVYLQMNSLKPEDTAVYYCAAARYVRYYSGYWGQGTQVTVSS	high polyreactivity
QVQLVESGGGLVQAGGSLRLSCAASGSTFSVNAMGWYRQAPGKEREFVAAIRWPGGSTYYADSVKGRFTFSRDKAKNTVYLQMNSLKPEDTAVYYCAARIKYRYDWGQGTQVTVSS	low polyreactivity
QVQLVESGGGLVQAGGSLRLSCAASRRTFYYAMGWYRQAPWKERYADSVKGRFTISRDNAKNTVYLQMNSLKPVDTAVYYCAAKVPEPPSLDESDYWGQGTQVTVSS	low polyreactivity
QVQLVESGGGLVQAGGSLRLSCAASGFTFFENAMGWYRQAPGKERELVAAIRKSGDRTYYADSVKGRFTISRDNAKNTVYLQMNSLKPEDTAVYYCAAPLSLRSSFGSWGQGTQVTVSS	high polyreactivity
QVQLVESGGGLVQAGGSLRLSCAASGITFSRNTMGWYRQAPGKERELVAAISRSGASTYYADSVKGRFTISRDNAKNTVYLQMNSLKPEDTAVYYCAARFHYPGGPRYYYWGQGTQVTVSS	high polyreactivity
QVQLLESGGGLVQAGGSLRLSCAASGSIFTPNNMGWYRQAPGKESEFVAAITFSGGSTYYADSVKGRFTISRDNAKNTVYLQMNSLKPEDTSVYYCAAVYPTYDWYTPAYYYWGQGTQVTVSS	low polyreactivity
QGQLVESGGGLVQAGGSLRLSCAASGSIYPLNVMGWYRQSPGKERELVATISKSGGSTYYADSVKGRITISRDNAKNTVYLQMNSLKPEDTGVYNCTVGRYVVGGTSVGYWGQGTQVSVSS	low polyreactivity
QVQLVESGGGLVQAGGSLRLSCAASGFILGTYAMGWYRQATGKERELVADISWSVGSTYYADSVKGRFTISRDNAKNTVYLQMISLKPEDTAVYYCNADGYTLWYEYDYWGQGTQVTVSS	low polyreactivity
QVQLVESGGGLVQAGGSLRLSCAASGRIFPGNAMGWYRQAPGKEREFVAAINTRGGITYYADSVKGRFTISRDNAKNTVYLQMNSLKPEDTAVYYCNKRWSIRSGYPYTYGIYDYWGQGTQVTVSS	low polyreactivity
QVQLVESGGGIVQAGGSLRLSCAATGSIFGNYAMGWYRQAPGKERELVAAITSSGGTYYADSVKGRFTISRDNAKNTVYLQMNSLKPEDTAVYYCAARYYSYRHQSVKYGYWGQGTQVTVSS	high polyreactivity
QVQLVESGGGLVQAGGSLRLSCAASGSIFFPYAMGWYRQAPGKERELVAAIDTSSGSTYSADSVKGRFTISRDNAKNTVYLQMNSLKPEDTAVYYCAREALQYPGLKYNYWGQGTQVTVSS	low polyreactivity
QVQLVESGGGLVQAGGSLRLSCAASGSIIGRYAMGWYRQAPGKERELVAAISTGGGRTYYADSVKGRFTISRDNAKNTVYLQLNSLKPEDTAVYYCNAGPYKGWGRMDYWGQGTQVTVSS	high polyreactivity
QVQLVESGGGLDQAGGSLRLSCAASGSIFDSNALGWYRQAPGKERELVASITSSGGSTYYADSVKGRFTISRDKAKNTVYLQMNSLKPEDTAVYYCAADSYKTKHDAYDYCGQGTQVTVSS	high polyreactivity
